Laboratory results: the supplement of paper PMC12042874
± gives the uncertainty stated by the source.

Assay: amyloid nucleation score (Sup35N fusion, yeast selection) (log enrichment); library NNK3; higher = more nucleation; inactive = no reads after selection
In short: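 Nucleation score is defined as the DiMSum log enrichment of output over input reads, with centring on the mode score of non-aggregating sequences. A minimum of 100 input reads was required for each sequence. Reads came from Illumina sequencing of plasmid inserts from psi-negative yeast expressing Sup35N fused to peptides of 20 random codons, induced with 100 μM copper sulfate for 24 hours and grown 7 days at 30°C on medium lacking adenine and uracil.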
For LILIRAVSG, the amyloid nucleation score was “inactive”. Work on LIMGTVVLIL yielded an amyloid nucleation score of 1.54 ± 0.073. With LINAGTKFMQDTRSCWMHSS the amyloid nucleation score was “inactive”. Work on LINFEY yielded an amyloid nucleation score of 1.16 ± 0.073. LINVELYLPGLRRIWAPSSG showed an amyloid nucleation score of 0.221 ± 0.54. With LIQPFFWCHCHDLAVDESGE the amyloid nucleation score was 1.66 ± 0.11. With LIRAVGFGGWILIAHWYIWN the amyloid nucleation score was “inactive”. With LIRGK the amyloid nucleation score was “inactive”. For LISNFVWLQLRCA, the amyloid nucleation score was “inactive”. With LISTWNMAYSLSLIMMDHHS the amyloid nucleation score was “inactive”. With LIVYFRPYGNALRRFVRSYV the amyloid nucleation score was “inactive”. For LIYDRHSWNHWSSQHVDRDG, the amyloid nucleation score was “inactive”. In the case of LKLMKNDCRFSNGNLVVVRV, the amyloid nucleation score is reported as “inactive”. In the case of LKLYQAAL, the amyloid nucleation score is reported as “inactive”. Work on LKLYTLLDRNSNKRTNAGMS yielded an amyloid nucleation score of -0.469 ± 0.88. For LKRLHFKSGDMSGQRQFRGS, the amyloid nucleation score was “inactive”. In the case of LKSIYLLKWCPTSQLRTTSV, the amyloid nucleation score is reported as “inactive”. In the case of LKTVSMSYD, the amyloid nucleation score is reported as “inactive”. In the case of LKVMWLWSAKINYMSIVENL, the amyloid nucleation score is reported as “inactive”. For LKVVYGSLALPSFKFIWQAE, the amyloid nucleation score was “inactive”. For LKWNTTSVNVVYLSFIIGRQ, the amyloid nucleation score was 2.15 ± 0.086. In the case of LLANDSWF, the amyloid nucleation score is reported as “inactive”. In the case of LLDYRPKTGNCRVQIRLCVV, the amyloid nucleation score is reported as “inactive”. For LLGMLIRGDAF, the amyloid nucleation score was “inactive”. For LLGSMVWGYSARYNFRVSQG, the amyloid nucleation score was “inactive”. In the case of LLHCQCSC, the amyloid nucleation score is reported as “inactive”. Substance LLKVSGYWLMLRGLTRKFMG has an amyloid nucleation score of -0.047 ± 1.1. In the case of LLKVVD, the amyloid nucleation score is reported as “inactive”. For LLLSDFVSLLESPRVLHAQW, the amyloid nucleation score was “inactive”. Work on LLLTDSMSHLRFSHNSCMQQ yielded an amyloid nucleation score of 0.868 ± 0.17. With LLMDGLIRFWS the amyloid nucleation score was “inactive”. In the case of LLNCGLMLLRIDVCRATYYV, the amyloid nucleation score is reported as 1.36 ± 0.14. For LLPLDSHYISSPFY, the amyloid nucleation score was “inactive”. For LLRGVRKE, the amyloid nucleation score was “inactive”. LLSVICLTSIHF showed an amyloid nucleation score of 2.74 ± 0.067. With LLTSLDPDYSSPWCYSVDIC the amyloid nucleation score was “inactive”. Work on LLVKSYNLYIMFSPHL yielded an amyloid nucleation score of 1.68 ± 0.078. For LLVLPGGVSGVNLRDEWTDF, the amyloid nucleation score was “inactive”. For LLVLVV, the amyloid nucleation score was “inactive”. For LLVQLLLCKLKSMRLCCTVF, the amyloid nucleation score was “inactive”. LLYENTVSSRGTVLRDHLS gave an amyloid nucleation score of 0.456 ± 0.36. For LMAFNPMYSSQKYGTNYSFM, the amyloid nucleation score was “inactive”. With LMGTSIPSKQADLGTEFSNF the amyloid nucleation score was “inactive”. For LMKWALNTELKMG, the amyloid nucleation score was “inactive”. In the case of LMNYRMGWWFVCENYNEML, the amyloid nucleation score is reported as 0.571 ± 0.17. In the case of LMRTDNSSKNGSASGGGMSG, the amyloid nucleation score is reported as “inactive”. Work on LMSFCHPDPIDFSVTGLCCR yielded an amyloid nucleation score of -0.208 ± 0.39. With LMYRYVTLNAFRESISYISS the amyloid nucleation score was “inactive”. In the case of LNCIFLVKVIYWTRFTWSTY, the amyloid nucleation score is reported as “inactive”. For LNCNSESMLPLYNMVWRNRN, the amyloid nucleation score was “inactive”. For LNFVVYMIGGFCCHHFNVLF, the amyloid nucleation score was 1.3 ± 0.1. With LNGASADRRDWAEWLKADHC the amyloid nucleation score was “inactive”. For LNGIEGSGY, the amyloid nucleation score was “inactive”. For LNKCLAGFIHMEVWILRMKL, the amyloid nucleation score was “inactive”. In the case of LNLAKQCMLPSFPSYMVWYF, the amyloid nucleation score is reported as “inactive”. With LNMARDYFVFQSPADPGCLV the amyloid nucleation score was “inactive”. For LNMHFENTIRGVPYTLVSGR, the amyloid nucleation score was “inactive”. Work on LNMKTV yielded an amyloid nucleation score of -0.702 ± 1. In the case of LNRLSCFSCPLFV, the amyloid nucleation score is reported as “inactive”. For LNSFFAAIHILMGHFKRILS, the amyloid nucleation score was “inactive”. With LNSLLY the amyloid nucleation score was “inactive”. With LNTNWCSSK the amyloid nucleation score was “inactive”. For LNVVKNYIGLVRRHIIRVHF, the amyloid nucleation score was “inactive”. Substance LNWLC has an amyloid nucleation score of 1.07 ± 0.086. In the case of LNWSKEAWCSYNILLNYGGW, the amyloid nucleation score is reported as “inactive”. In the case of LPAGVFTDSACVVVSANKAT, the amyloid nucleation score is reported as “inactive”.
